Reference: US20170081400A1 (CEPHALON, published 2017)
Residue numbers refer to the chain shown, from its start.

T1: human TL1A extracellular domain with N-terminal HIS and FLAG tag (human, UniProt O95150 72-251)
T1 construct: the whole entry is named
T1 sequence: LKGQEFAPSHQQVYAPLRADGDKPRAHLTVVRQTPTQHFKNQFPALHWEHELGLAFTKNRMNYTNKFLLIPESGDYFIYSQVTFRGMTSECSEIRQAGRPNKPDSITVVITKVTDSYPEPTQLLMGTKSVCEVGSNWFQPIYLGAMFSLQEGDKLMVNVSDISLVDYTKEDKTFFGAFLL

T2: human TL1A extracellular domain with N-terminal HIS and FLAG tag (human, UniProt O95150 72-251)
T2 construct: whole entry named. ~70 kDa fraction purified by gel filtration
T2 sequence: T1 sequence

T3: human TL1A extracellular domain with N-terminal HIS and FLAG tag (human) (UniProt O95150)
T3 sequence: T1 sequence

B1: 320-373 (antibody, human IgG1, name in Kabat numbering, V domains shown)
VH: QVQLVQSGAEVKKPGASVKVSCKASGYTFTSYDINWVRQAPGQGLEWMGWLNPNSGNTGYAQKFQGRVTMTADRSTSTAYMELSSLRSEDTAVYYCAREVPETAAFEYWGQGTLVTVSS
VL: QSVLTQPPSVSGAPGQRVTISCTSSSSDIGAGLGVHWYQQLPGTAPKLLIEGYYNRPSGVPDRFSGSKSGTSASLTITGLLPEDEGDYYCQSYDGTLSQLFGGGTKLTVLG
notes: human IgG1, lambda
B2: 320-207 (antibody, human IgG1, name in Kabat numbering, V domains shown)
VH: B1 VH
VL: B1 VL with S24W, Q99A
notes: human IgG1, lambda
B3: 320-249 (antibody, human IgG1, name in Kabat numbering, V domains shown)
VH: B1 VH
VL: B1 VL with I29Y, Q99A
notes: human IgG1, lambda
B4: 320-377 (antibody, human IgG1, name in Kabat numbering, V domains shown)
VH: B1 VH
VL: B1 VL with Q99L
notes: human IgG1, lambda
B5: 320-202 (antibody, human IgG1, name in Kabat numbering, V domains shown)
VH: B1 VH
VL: B1 VL with S24Q, Q99A
notes: human IgG1, lambda
B6: 320-232 (antibody, human IgG1, name in Kabat numbering, V domains shown)
VH: B1 VH
VL: B1 VL with S27Y, Q99A
notes: human IgG1, lambda
B7: 320-229 (antibody, human IgG1, name in Kabat numbering, V domains shown)
VH: B1 VH
VL: B1 VL with S27K, Q99A
notes: human IgG1, lambda
B8: 320-246 (antibody, human IgG1, name in Kabat numbering, V domains shown)
VH: B1 VH
VL: B1 VL with I29K, Q99A
notes: human IgG1, lambda
B9: 320-245 (antibody, human IgG1, name in Kabat numbering, V domains shown)
VH: B1 VH
VL: B1 VL with I29H, Q99A
notes: human IgG1, lambda
B10: 320-198 (antibody, human IgG1, name in Kabat numbering, V domains shown)
VH: B1 VH
VL: B1 VL with T23L, Q99A
notes: human IgG1, lambda
B11: 320-248 (antibody, human IgG1, name in Kabat numbering, V domains shown)
VH: B1 VH
VL: B1 VL with I29W, Q99A
notes: human IgG1, lambda
B12: 320-247 (antibody, human IgG1, name in Kabat numbering, V domains shown)
VH: B1 VH
VL: B1 VL with I29L, Q99A
notes: human IgG1, lambda
B13: 320-239 (antibody, human IgG1, name in Kabat numbering, V domains shown)
VH: B1 VH
VL: B1 VL with D28W, Q99A
notes: human IgG1, lambda
B14: 320-242 (antibody, human IgG1, name in Kabat numbering, V domains shown)
VH: B1 VH
VL: B1 VL with I29S, Q99A
notes: human IgG1, lambda
B15: 320-240 (antibody, human IgG1, name in Kabat numbering, V domains shown)
VH: B1 VH
VL: B1 VL with D28Y, Q99A
notes: human IgG1, lambda
B16: 320-376 (antibody, human IgG1, name in Kabat numbering, V domains shown)
VH: B1 VH
VL: B1 VL with Q99K
notes: human IgG1, lambda
B17: 320-219 (antibody, human IgG1, name in Kabat numbering, V domains shown)
VH: B1 VH
VL: B1 VL with S26D, Q99A
notes: human IgG1, lambda
B18: 320-238 (antibody, human IgG1, name in Kabat numbering, V domains shown)
VH: B1 VH
VL: B1 VL with D28L, Q99A
notes: human IgG1, lambda
B19: 320-234 (antibody, human IgG1, name in Kabat numbering, V domains shown)
VH: B1 VH
VL: B1 VL with D28S, Q99A
notes: human IgG1, lambda
B20: 320-251 (antibody, human IgG1, name in Kabat numbering, V domains shown)
VH: B1 VH
VL: B1 VL with G30S, Q99A
notes: human IgG1, lambda
B21: 320-243 (antibody, human IgG1, name in Kabat numbering, V domains shown)
VH: B1 VH
VL: B1 VL with I29Q, Q99A
notes: human IgG1, lambda
B22: 320-241 (antibody, human IgG1, name in Kabat numbering, V domains shown)
VH: B1 VH
VL: B1 VL with I29A, Q99A
notes: human IgG1, lambda
B23: 320-209 (antibody, human IgG1, name in Kabat numbering, V domains shown)
VH: B1 VH
VL: B1 VL with S25A, Q99A
notes: human IgG1, lambda
B24: 320-375 (antibody, human IgG1, name in Kabat numbering, V domains shown)
VH: B1 VH
VL: B1 VL with Q99H
notes: human IgG1, lambda
B25: 320-235 (antibody, human IgG1, name in Kabat numbering, V domains shown)
VH: B1 VH
VL: B1 VL with D28Q, Q99A
notes: human IgG1, lambda
B26: 320-231 (antibody, human IgG1, name in Kabat numbering, V domains shown)
VH: B1 VH
VL: B1 VL with S27W, Q99A
notes: human IgG1, lambda
B27: 320-226 (antibody, human IgG1, name in Kabat numbering, V domains shown)
VH: B1 VH
VL: B1 VL with S27Q, Q99A
notes: human IgG1, lambda
B28: 320-250 (antibody, human IgG1, name in Kabat numbering, V domains shown)
VH: B1 VH
VL: B1 VL with G30A, Q99A
notes: human IgG1, lambda
B29: 320-378 (antibody, human IgG1, name in Kabat numbering, V domains shown)
VH: B1 VH
VL: B1 VL with Q99W
notes: human IgG1, lambda

What was measured:
[1] = biological target: T1, human TL1A extracellular domain with …; assay: SPR Run 5, Ab from supernatant captured on Protein A, TL1A 5 ug/mL, timepoint 44
From the text: (§1) 1.5. Antibody expression and antigen binding as determined by SPR. Using a CM5 sensor chip (GE Healthcare) Protein A (Pierce) was coupled to the chip surface using an amine coupling kit (GE Healthcare). Protein A was coupled on flow cell 1 and 2 (or alternatively 3 and 4) using a BIACORE® T200. […] The amount of supernatant or purified protein (as well as the concentration) injected during the capture stage varied between runs and is specified in the header of the Tables 3-11. At the end of injection of the supernatant or purified antibody the change in response units was measured. This value was reported as Capture Level in Tables 3-11. […] The response units were measured prior to the end of the dissociation phase. […] The sensorgrams were double referenced (flow cell 2 is subtracted from flow cell 1 and a buffer blank). As there were a large number of antibody variants to screen, these were screened across different runs (Tables 3-11). […] A summary of the conditions used in each run is below:
(§2) 2.1. […] In some experiment the antibodies were purified using Protein A chromatography (See 1.4) and purified antibodies were used in BIACORE® (GE Healthcare) experiments.

[2] = biological target: T1, human TL1A extracellular domain with …; assay: SPR Run 5, Ab from supernatant captured on Protein A, TL1A 5 ug/mL, timepoint 220
From the text: as §1, §2

[3] = biological target: T2, human TL1A extracellular domain with …; assay: SPR run 2; supernatant on Protein A; TL1A 10 ug/mL; timepoint 220
From the text: as §1, §2

[4] = biological target: T3, human TL1A extracellular domain with N-terminal HIS and FLAG tag (human); assay: cell-based or functional assay
[5] = biological target: T2, human TL1A extracellular domain with …; assay: SPR run 2; supernatant on Protein A; TL1A 10 ug/mL; timepoint 44
From the text: as §1, §2

| Binder | TL1A Binding Level (Early) [1] [RU] | TL1A Binding Level (Late) [2] [RU] | TL1A Binding Level (Late) [3] [RU] | Antibody IC50, TL1A induced caspase potency assay in TF-1 cells [4] [µg/mL] | Fold improvement over 320-179, TL1A induced caspase potency assay in TF-1 cells [4] [fold] | TL1A Binding Level (Early) [5] [RU] |
| --- | --- | --- | --- | --- | --- | --- |
| B1 | -1 | -1 | – | – | – | – |
| B2 | – | – | 243 | 0.007 | 3 | 268 |
| B3 | – | – | 28 | – | – | 77 |
| B4 | -1 | -1 | – | – | – | – |
| B5 | – | – | 214 | 0.01 | 1 | 234 |
| B6 | – | – | 235 | – | – | 261 |
| B7 | – | – | 251 | 0.04 | 2 | 268 |
| B8 | – | – | 23 | – | – | 32 |
| B9 | – | – | 26 | 0.54 | 0 | 59 |
| B10 | – | – | 241 | 0.01 | 1 | 262 |
| B11 | – | – | 30 | – | – | 96 |
| B12 | – | – | 162 | – | – | 205 |
| B13 | – | – | 163 | – | – | 212 |
| B14 | – | – | 49 | – | – | 124 |
| B15 | – | – | 196 | – | – | 230 |
| B16 | 3 | 1 | – | – | – | – |
| B17 | – | – | 220 | 0.02 | 2 | 243 |
| B18 | – | – | 191 | – | – | 221 |
| B19 | – | – | 239 | – | – | 262 |
| B20 | – | – | 50 | – | – | 134 |
| B21 | – | – | 26 | – | – | 71 |
| B22 | – | – | 122 | 0.02 | 1 | 179 |
| B23 | – | – | 200 | 0.04 | 1 | 222 |
| B24 | -2 | -1 | – | – | – | – |
| B25 | – | – | 236 | – | – | 256 |
| B26 | – | – | 243 | – | – | 271 |
| B27 | – | – | 228 | 0.03 | 1 | 250 |
| B28 | – | – | 115 | – | – | 180 |
| B29 | -1 | -1 | – | – | – | – |
